{
  "source": "the domain aggregation screens of Martell et al. (2025)",
  "assay": "soluble fraction after stress (log2 fold change); higher = more stays soluble; pooled small domains, quantitative proteomics",
  "settings": "stress: 50 degC",
  "method_in_brief": "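Pooled custom libraries of small protein domains were measured in a high-throughput format, with quantitative proteomics as the read-out. Each library was stressed at 50°C. Aggregation propensity is given as the base-two logarithm of the fold change in how much of each protein stays soluble after the stress. Higher values mean a larger share of the protein remains in solution.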",
  "data": [
    {"sequence": "HMLLSYDIAEYIEKYIHEHGLQPGDRLPTERELAAQLDITRVSVRQGYKRLLDQGVIRSENGYYVNPPR", "values": [
      {"measurement": "soluble fraction (log2)", "result": -1.34}
    ]},
    {"sequence": "HMLLTDGLERRIDGDKNLHIRISLPMLVKGQIKLAKSGNNESTVKGIFKIESYPGSHPRDVVTEIIEG", "values": [
      {"measurement": "soluble fraction (log2)", "result": -0.0938}
    ]},
    {"sequence": "HMLLTHPKRVFTYELIMELVWNEDYTFYSKKAVSNHMSNLRKKLKVTPDALDYIKNIVGVGYKFEA", "values": [
      {"measurement": "soluble fraction (log2)", "result": -0.759}
    ]},
    {"sequence": "HMLMKKTITHEIELLEFLKQIFPQSSTNKLRKMLSNGRIKINSEIVHKAKYKLQENDTFELLDNPT", "values": [
      {"measurement": "soluble fraction (log2)", "result": -0.488}
    ]},
    {"sequence": "HMLNEIMDTINKYISDKRNNKVAQNILSAALDELNSQIRVGLKDLNPHSIEEFKENVINSPYIEFEQG", "values": [
      {"measurement": "soluble fraction (log2)", "result": 0.046}
    ]},
    {"sequence": "HMLNEWIDYIDEHIKEELTAKNLATVFGYSERHFRNVFQIYYDIKLNDYIRRRKLYFAAQELKKG", "values": [
      {"measurement": "soluble fraction (log2)", "result": -1.17}
    ]},
    {"sequence": "HMLNMSVYDKQLLRAVENNPFISQRELARELHWNVDRVKYYMKKWKDKGGLRHVGSSHKGYWEVLVRIEEK", "values": [
      {"measurement": "soluble fraction (log2)", "result": -0.886}
    ]},
    {"sequence": "HMLNNVDIHKLSEDLLLYKIKIDIKLKNIEDAISTIDYFSNKFPNSDLMPYVIYEKKLIDNI", "values": [
      {"measurement": "soluble fraction (log2)", "result": -2.5}
    ]},
    {"sequence": "HMLNPLLLPFVEAEDFQVKLEILAAMEGKVGEEDLDILYEALDLPKMTGNIEEQIHSIKQYIEMRK", "values": [
      {"measurement": "soluble fraction (log2)", "result": -1.15}
    ]},
    {"sequence": "HMLNPVEKLLLLSQLYIGRLKGSFVVKEKHHKSTILGEVRELSPEEITLKTDEGYRLIRVDDILTIQL", "values": [
      {"measurement": "soluble fraction (log2)", "result": -2.18}
    ]},
    {"sequence": "HMLNSLDATQRLKLNKDGVVVFNFGKYVDQSVIDIFKKEKGYYNWMMSKDFSQQVKNIITKIYQEEIIG", "values": [
      {"measurement": "soluble fraction (log2)", "result": -0.982}
    ]},
    {"sequence": "HMLNTLGADIRALRKARGLTLAELAQTLGRSVGWLSQVERDMSEPGINDLRDLARALDVSISSLFG", "values": [
      {"measurement": "soluble fraction (log2)", "result": -1.13}
    ]},
    {"sequence": "HMLNWINSDVLERFNSLTKEKQKAIVADTETRLNGLSQARFKVAKSSSNERLIAEFAIEINEAIMRAAAL", "values": [
      {"measurement": "soluble fraction (log2)", "result": -1.49}
    ]},
    {"sequence": "HMLPADETEARVLNVLGSEPLHVDEIRNQADLPIEKISATLAMMELKGMVRQVGGMNYVAMR", "values": [
      {"measurement": "soluble fraction (log2)", "result": 0.0898}
    ]},
    {"sequence": "HMLPANGEAIYHYLASGAIKGVGPVTAQRIVDKFGEDTFDVLENNPLWLAEIKGITRKTAENIGAAFAAQF", "values": [
      {"measurement": "soluble fraction (log2)", "result": "≥ 0.62"}
    ]},
    {"sequence": "HMLPDAESFSYEVPYTKGDGGTYNYEGKIKAQNADAARDEIIRQAQVYFQMNPQFTPDYPSTTITSLD", "values": [
      {"measurement": "soluble fraction (log2)", "result": 0.171}
    ]},
    {"sequence": "HMLPDDDMLLNILTKLLIDKQFVINSHEIFDFIIKRANRSYEEMFILVNKLDQLSLEKKRQLTIPLIKEI", "values": [
      {"measurement": "soluble fraction (log2)", "result": -0.652}
    ]},
    {"sequence": "HMLPDLQESIDELLNIVDQRLNTSFEELVSGVNTTEKAIAFFLALLETIKWGFIKAEQTNNENKINIEKNY", "values": [
      {"measurement": "soluble fraction (log2)", "result": 0.0699}
    ]},
    {"sequence": "HMLPDPIYEAFMMASDLGIVVRNGPQYAYPDKETGEVLYKALGREKFLQLMKDNDGLLTSIETEIRSM", "values": [
      {"measurement": "soluble fraction (log2)", "result": -1.18}
    ]},
    {"sequence": "HMLPKTVTLIDPVSGVAKTVTWVPALTLYSARRKAGLNRVPNTATIDRGGRELTGKRGSTLQPGDVVRW", "values": [
      {"measurement": "soluble fraction (log2)", "result": -0.425}
    ]},
    {"sequence": "HMLPPLGDQELELLRFITESAPITVREAAESYGKDRGLARTTVLTMMERLRAKGYLTRSESGAANEYSP", "values": [
      {"measurement": "soluble fraction (log2)", "result": -0.155}
    ]},
    {"sequence": "HMLPPVFLTIDANENVIVRKDGEPVQTLNKFELGAFARSQAENSAEQPVVLAADKSIKYEVVMEVI", "values": [
      {"measurement": "soluble fraction (log2)", "result": 0.0698}
    ]},
    {"sequence": "HMLPRLVLSPGTEVLATVMGKYENGMSLVKISSHLFAMDLPSRVQVGDSLRMTFLHQDARPTFALA", "values": [
      {"measurement": "soluble fraction (log2)", "result": -0.779}
    ]},
    {"sequence": "HMLPSDLDEGNRRRQLIEGAARLFRAKGFDGTSTRDIAAAAGMRSGSPFYHFDSKNALLYVVVQEGM", "values": [
      {"measurement": "soluble fraction (log2)", "result": -0.0519}
    ]},
    {"sequence": "HMLPSWLPTDAWEAFLEARVAMKARPTERAKGLLLGELSKLVSQGQDARAVLEQSVQRGWRGLFPVK", "values": [
      {"measurement": "soluble fraction (log2)", "result": -1.52}
    ]},
    {"sequence": "HMLPSWPGVSEFEVARLLRRGRARGSLTLDEVIDVVRDAELTSELIAGIRSSLRAEGIDFEET", "values": [
      {"measurement": "soluble fraction (log2)", "result": -0.475}
    ]},
    {"sequence": "HMLPTLSLSVKIYKGEGDIALDLEEMVKAFDQLNFGSYPFSEKGVHGTNIVIRGNDKKHMEEAEDKVRSLT", "values": [
      {"measurement": "soluble fraction (log2)", "result": -0.725}
    ]},
    {"sequence": "HMLPVDALFAQHPALIVTLGQTEKLKHGAAIRDWHFADGTYRVYSETGEFLLLGTVKGQILTTVKSFFE", "values": [
      {"measurement": "soluble fraction (log2)", "result": -2.08}
    ]},
    {"sequence": "HMLQARKFTHIQGYEFEAEFLRTNGEFVELQDPQGRKKWFPISNFIQDDKDFIKEQAGNLSS", "values": [
      {"measurement": "soluble fraction (log2)", "result": -0.0494}
    ]},
    {"sequence": "HMLQEFTLELATAVVQEFRDQPGALINALHKLQETFGYVDEAAMPVLARLFNLSRAEVHGVASFYHDFRRS", "values": [
      {"measurement": "soluble fraction (log2)", "result": -1.49}
    ]},
    {"sequence": "HMLQEHVLEIRHPSWNDAFRIIGHDGWRTQTGAHAAILSYDEEELNIKWDSWGYERFIRDEKGIFRLAA", "values": [
      {"measurement": "soluble fraction (log2)", "result": -0.055}
    ]},
    {"sequence": "HMLQESDPEALRGIVKSVLVDHAAVAEEYRAGKQSVLQFLVGQGMKASKGAGNPGLIRDLMLEEL", "values": [
      {"measurement": "soluble fraction (log2)", "result": -0.00903}
    ]},
    {"sequence": "HMLQLSDAISRVESFLQGQNRNLAFSIDENTERSVVTVLDSDTGDVIRQIPSEELLVLAKRIQELQQD", "values": [
      {"measurement": "soluble fraction (log2)", "result": 0.151}
    ]},
    {"sequence": "HMLQMSDSSALEAILDEVLGSEMGQKALSDIEAGNMKAMGFIIGQSMKLSKGQANPQIINKLLQQRLK", "values": [
      {"measurement": "soluble fraction (log2)", "result": -0.000287}
    ]},
    {"sequence": "HMLQNLGFKPDLEIRHFPGIVLPDIHRSKKTISLLYTLLAGDIKKLPENEINYKDSKIISSYLWTLLRYH", "values": [
      {"measurement": "soluble fraction (log2)", "result": 0.0237}
    ]},
    {"sequence": "HMLQSGSDYLIEQVRMYTATGQREYMDNYFEELNTTRRRENALEYFAEHYGDNDAFTLLKSAMTTSQN", "values": [
      {"measurement": "soluble fraction (log2)", "result": -0.428}
    ]},
    {"sequence": "HMLQVRRILQLLADGYSKRQISQQTAVSRNTIDSYEDRFHLTGKSYQELLSMEDGELSGIVYP", "values": [
      {"measurement": "soluble fraction (log2)", "result": -0.424}
    ]}
  ]
}
